Source: the nanobody polyreactivity screen of Harvey et al. (2022)

Assay: yeast display, Sf9 membrane polyspecificity reagent, FACS + sequencing; frameworks hold sequencing errors
Procedure, shortened: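 After 36–48 hours of galactose induction, yeast (Saccharomyces cerevisiae BJ5465) displaying a synthetic nanobody library were stained at 4 °C for 1 hour with 10% biotinylated, detergent-solubilized Sf9 membrane reagent. Streptavidin microbeads enriched the stained cells before FACS sorting into low and high (top ~1%) gates on anti-HA and streptavidin fluorescence. Each clone's polyreactivity label reflects its gate of origin.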

Sequence: QVQLVESGGGLVQAGGSLRLSCAASGFIFIYNAMGWYRQAPGKERELVASITSGGGSTYYADSVKGRFTISRDNAKNTVYLQMNSLKPEDTAVYYCAKQDAVQGAEASGEYDYWGQGTQVTVSS
- polyreactivity (PSR sort gate): low polyreactivity

Sequence: QVQLVESGGGLVQAGGSLRLSCAASGRIFIYNDMGWYRQAPGKERELVAAITFIDDSTNYADSVKGRFTISRDNAKYSVYLQMNRLKPEDTAVYYCAARLYSSASGVRWIKFDYWGQGTQVTVSS
- polyreactivity (PSR sort gate): low polyreactivity

Sequence: QVQHVESGGGLVQAGGSLRLSCAASGRIFYFNAMGWYRPAPGKERELVAAISSSSGSTNYADSVQGRFTISRDNAKNTVYLQMNSLKPEATAVYYCAADGYYQDYTFEYDYWGQGTQVTVSS
- polyreactivity (PSR sort gate): low polyreactivity

Sequence: QVQLVESGGGLVQAGGSLRLSCAASGITFRLYAMGWYRQAPGKERELVAAISKRGGSTYYADSVKGRFTISRDNAKNTVYLPMNSLKPDDTAVYYCAADSGWEHRYDYWGQGTQVTVSS
- polyreactivity (PSR sort gate): high polyreactivity

Sequence: QGQLVESGGGFVQAGGSLRLSCAASGSTFRYYTMGWYRQAPGKEREFVAAITSSGTSTYYADSVKGRFTISRDIAKNTVYLQMNSLKPEDTAVYYCNKVGIYGSRSRYDSWGQGTQVTVSS
- polyreactivity (PSR sort gate): high polyreactivity

Sequence: QVQLVESGGGLVQAGGSLRLSCAASGSTFVTYAMGWYRQAPGKERELVATITTSGGSTYYADSVKGRFTISRDNAKNTVYLQMNSLKPEDTAVYYCAADYYSNYSRFDYWGQGTQVTVSS
- polyreactivity (PSR sort gate): low polyreactivity

Sequence: QVQLVESGGGLVQAGGSLRLSCAASGRIFRYNAMGWYRQAPGKERELVATITSGGNTNYADSVKGRFTISRDNAKNTVYLQMISLKPEDTAVYYCNAAEPQWYDAYDYWGQGTQVTVSS
- polyreactivity (PSR sort gate): low polyreactivity

Sequence: QVQLVESGGGLDQAGGSLRLSCAASASTFYANAMGWYRQSPGKEREFVAAIDWSGATTYYADSVKGRFTISRDNAMNTVYLQMNSLKPEDTAVYYCAAEVYFLATGTWYDYWGLGTQVTVSS
- polyreactivity (PSR sort gate): high polyreactivity

Sequence: QVQLEESGGGLVQAGGSLRLSCAASGRTSLAYAKGWYRQAPGKERELVAGITSGGNTNYADSVKGRFTISRDNAKNTVYLQMNSLKPEDTAVYSCNKKKRWQWYSESVLVYLGFYSWGQGTQVTVSS
- polyreactivity (PSR sort gate): low polyreactivity

Sequence: QVQLVESGGGLVQAGGSLRLSCAAAGSTFSYYTMGWYRQAPGKERELVAAITRSGGRTYYADSVKGRFTISRDNAKYTVYLQMNSLKPEDTAVYYCAREYYPDWGQGTQVTVSS
- polyreactivity (PSR sort gate): high polyreactivity

Sequence: QVHLVESGGCLVQAGGSLRLSCAASGRIYRYAMGWYRQAPGKERELVAVITRRGDGTYYADSVKGRFTISRDNAKNTVYLQMNSLKPEDTAVYYCNADQSYKRPWPYDYWGQGTQVTVSS
- polyreactivity (PSR sort gate): high polyreactivity

Sequence: QVQLVESGGGLVQAGGSLRLSCAASGSNFDTYAMGWYIPAPGKERELVAVLTWSGGGTYYSDSVKGRFTISRDNANNTVYLQMTSVKPEVTAVYYCNAADFGWDYASYYWGQGTQLTVSS
- polyreactivity (PSR sort gate): low polyreactivity

Sequence: QVQLVESGGGLVPAGGSLRLSCAASGFTFTRYAMGWYRQARGKERELVAAISWNGGSTYYADSVKGRFTISRDNAKKTVYLQMNSLKPEDTAVYYCAVRFKYQWSNFGYWGQGTQVTVSS
- polyreactivity (PSR sort gate): high polyreactivity

Sequence: QVQLVESGGGLVQAGGSLRLSCAASGFIFPGYAMGSYRQAPGKERELVAAISRRGGRTYYADSVKGRFTISRDNAKNTVYLQMNSLKPEDTAVYYCAAVVQSTQYICDYWGQGTQVTVSS
- polyreactivity (PSR sort gate): high polyreactivity

Sequence: QVQLVESGGGLVQARGSLRLSCAASGFIIRWNTKGWYRQAPGKVRELVAAISSRGGSTYYADSVKGRFKISRDNAKNTVYLQMNSRKPEDTAVYYCNAVRGDEYWGLGTQVTVSS
- polyreactivity (PSR sort gate): high polyreactivity

Sequence: QVQLVESGGGLVQAGGSLRISCAASGRTFGANAMGWYRQAPGKERELVAGITSSGGSTSYADSVKGRFTISRDNAKNTVYLQMNSLKPEDTAVYYCAKDVYQHIFDVILGGYDSWGQGTQVTVSS
- polyreactivity (PSR sort gate): low polyreactivity

Sequence: QVQLVESGGGLVQAGGSLRLSCAASGIIFYEYAMGWYRQAPGKERELVATITSGGSTNYADSVKGRFTISRDNAKNTVYLQMNSLKPEDTAVYYCNADWWWGYGYWGQGTQVTVSS
- polyreactivity (PSR sort gate): low polyreactivity

Sequence: QVQLVESGGGLVQAGGSLRLSCAASGGTFRKNAMGWYRQAPGKERELVAAITKSGGSTYYADSVKGRFTISRDNAKNTVYLQMNSLKPEDTAVYYCNTYPGSTQPPYDYWGQGTQVTVSS
- polyreactivity (PSR sort gate): low polyreactivity

Sequence: QVQLVESRGGLVQAGGSLRLSCAASGRTFWYKAMGWYRQAPGKERELVAAISKSAAITYYADSVKGRFTISRDNAKNTVYLQMNSLKPEDTAVYYCNAGVRAVNRKYDYWGQGTQVTVSS
- polyreactivity (PSR sort gate): high polyreactivity

Sequence: QVQLVESGGGLVQAGGSLRFSCAASGSTFVRYPMGWYRQAPGKERELVAAITRSGGRTYYADSVKGRFTISRDNAKNTVYLQMNSLKPEDTAVYYCAADVSHVQGYDYWGQGTQVTVSS
- polyreactivity (PSR sort gate): high polyreactivity

Sequence: QVQLVESGGGLVQAGGSLRLSCAASGIILQSYTMGWYRQAPGKERELVAALTKSGGRTYYADSVKGRFTISRDNAKNTVYLQMNSLKPEDTAVYYCAAPLSYSYDYSGQGTQVTVSS
- polyreactivity (PSR sort gate): high polyreactivity

Sequence: QVQLVESGGGLVQAGGSLRLSCAASGRTFWSNAMGWYRQAPGKEREFVAVISRSGSTTYYADSVKGRYTISRDNAKKTVYLQMISLKPEDTAFYNCAADRVRSYFSRYYSTPLDYYWGQGTQVTVSS
- polyreactivity (PSR sort gate): high polyreactivity

Sequence: QVQLVESGGGLVQAGGSLRLSCAASGRTLSWYAMGWYRQAPGKEREFVAAITSSGASTYYADSVKGRFTISRDNAKNTVYLQMNSLKPEDTAVYYCAAEAVYVSSWYDEYYYFRYDYWGQGTQVTVSS
- polyreactivity (PSR sort gate): high polyreactivity

Sequence: QVQLVESGGGLVQAGGSLRLSCAASGRTFLPNDMGWYRQAPGKERELVAAITDSGGDTYYADSVKGRFTISRDNAKNTVYLQMNSLKPEDTAVYYCAADYYYYGSYYPVEYWGQGTQVTVSS
- polyreactivity (PSR sort gate): high polyreactivity

Sequence: QVQLVESGGGLVEAGGSLRLSCAASGSIFARYAMGWTRQAPGKERELVAAITSRGGSTYADSVKGRFTISRDNAKNTVFLQMISLIPEDTAVYYCAAATLWYYRYWTSYDYWGQGTQVTVSS
- polyreactivity (PSR sort gate): high polyreactivity

Sequence: QVQLVESGGGIVQAGGSLRLSCAASGSIFSRKVMGWYRQAPGKDRELVAAISWSGSSTSYADSVKGRFTISRDTAKNTVYLQMNSLKPEDTAVYYCNRYFGQGYWGQGTQVTVSS
- polyreactivity (PSR sort gate): high polyreactivity

Sequence: QVQLVESGGGLVQAGGSLRLSCAASGFIFYKYAMGWYRQAPRKEREFVASISGSGGRTYYADSVKGRFTISRDNAKNTVYLQMNSLKPEDTAVYYCAVDLLRRGFPTVVTTYDYWGQGTQVTVSS
- polyreactivity (PSR sort gate): high polyreactivity

Sequence: QVQLVESGGGLVQAGGSLRLSCAASGSTFRVYAMGWYRQAPGKERELVAAISWSGGRTYYADSVKGRFTISRDNAKNTVYLQMNSLKPEDTAVYYCAKPGYLRPSRYDYWGQGTQVTVSS
- polyreactivity (PSR sort gate): high polyreactivity

Sequence: QVQLVESGGGLVQAGGSLLLSCAASGITFFTYAKGWYRQAPGKERELDAAISGSGGSTYYADSVKGRFTISRDNAKKTVYLQMNSLKPEDTAVYYCAAERENGDHYRYYYWGQGTQVTVSS
- polyreactivity (PSR sort gate): low polyreactivity

Sequence: QVQLVESGAGLVKAGGSLRLSCAASGRSFRGNVMGWYRQAPGKEREFVAAISSSGGSTYYADSVKGRFTISRDNAKNTVYLQMNSLKPEDTAVYYCAAGGWPYSGGWFFQPNYDYWGQGTQVTVSS
- polyreactivity (PSR sort gate): low polyreactivity

Sequence: QVQLVESGGGLVQAGGSLRLSCAASGFTIIYYAMGWYRQAPGKERELVAAITDSGGSTYYADSVKGRFTISRDNAKNTVYLQMNSLKPEDTAVYYCAARLTCSRFYYWGQGTQVTVSS
- polyreactivity (PSR sort gate): high polyreactivity

Sequence: QVQLVESGGGLVQAGGSLRLSCAASGLIFYIYMGWYRQAPGKERELVAVISSSGNSTYYADSVKGRFTISRDNEKNTVYLQMNSLKPEDTAVYYCNASAYYPPSSSRYDYWGQGTQVTVSS
- polyreactivity (PSR sort gate): low polyreactivity

Sequence: QDQLVESGGGLVQARGSLRLICSASGFIISDYAMGWSRQAPGEERELVAVITWRSGSTYYADSVKGRFTISRDNAKNTVYLQMNSLKPEDTAVYYCAARYYRNYSQGRRLGYNYWGQGTQVTVSS
- polyreactivity (PSR sort gate): high polyreactivity

Sequence: QVQLVESGGGLVQAGGSLRLSCAASGRTFEGNAMGWYRQSPGKERELVAAIRWRGGRTYYADSVKGRFTISRDNAKNTVYLQLNSLNPEDTAVYYCAAAGLPPPDNDYWGQGTQVTVSS
- polyreactivity (PSR sort gate): low polyreactivity

Sequence: QDQLVEACGGLVQAGGSLRLSCASSRSIIRGYAMGWYIQAHGKERELVAVIRRTSVSTYYADSVKGRFTISRDNAKNTVYLQMKCLKPEDTAVYYCNTLRLSSYPYYGYLGQGTQVTVSS
- polyreactivity (PSR sort gate): high polyreactivity

Sequence: QVQLVESGGGLVQAGGSLRLSCAASGSIFPYYAMGWYRQAPGKERELVAAINWIGGSTYYADSVKGRFTISRDNAKNTVYLQMNSLKPEDTAVYYCAVDYYSYYYEYDYWGQGTQVTVSS
- polyreactivity (PSR sort gate): high polyreactivity

Sequence: QVQLVESGGGLVQAGGSLRLSCAASGIIFDEYAMGWYRQAPGKEREMVAAITSGGSTYYADSVKGRFTISRDNAKNTVYLQMNSLKPEDTAVYYCNAYSSYGTFFYWAWPYYYWGQGTQVTVSS
- polyreactivity (PSR sort gate): high polyreactivity

Sequence: QVQLVESGGGLVQAGGSLRLSCAASGRIFYYYAMGWYRQAPGKERELVAAISWRGVSTYYADSVKGRFTISRDNAKNTVYLQMNSLKPEDTAVYYCAASQYRSPYPYRDYYTPDYDYWGQGTQVTVSS
- polyreactivity (PSR sort gate): high polyreactivity

Sequence: QVQLQESGSGLFQAGGSLRQSCAASGAIFPAYLMGWYRQAPGKERELVAGISYGSITYCADSVKGRFNISRDNAKNTVYLKMNSLKPEDTAVFGYWGQGTQVTVSS
- polyreactivity (PSR sort gate): low polyreactivity

Sequence: QVQLVESGGGLVQAGGSLSLSCAASGRIFNRNAMGWYRQAPGKERELVASISSGGRTNYADSVKGRFTISRDNAKNTFYLQMNSLKPEDTAVYYCAAKSPRILLDYWGQGTQVTVSS
- polyreactivity (PSR sort gate): low polyreactivity

Sequence: QVQLVDSGGGLVQAGGSLRLSCAASGSTFSLYAMGWYRQAPGKEREMVASITWGGGSTYADSVKGRFTISRDNAKNTVYLQMNSLKPEDTAVYYCARKFRYRVLYDFAYDHWGLGTQVTVSS
- polyreactivity (PSR sort gate): low polyreactivity

Sequence: QVQLVESGGGLVQAGGSLRLSCAASGRTLSYYAMGWYRQAPGKERELVAAIRHSAGSTYYADSVKGRFTISRDTAKNTVYLQMNSLKPEDTAVYYCAKKYYGHRYPSIYDYWGQGTQVTVSS
- polyreactivity (PSR sort gate): high polyreactivity

Sequence: QVQLVESGGGLVQAGGSLRLSCAASGFIFWRYAMGWYRQAPGKDRELVAAISSTGRTYYADSVKGRFTISRDNAKNTVYLQMNSLKPEDTAVYYCNAAPVYLADPTRKYKADYWGQGTQVTVSS
- polyreactivity (PSR sort gate): low polyreactivity
